Experimental data from patent publication US20040248198A1 (ST JUDE CHILDREN S RESEARCH HOSPITAL, published 2004).
Where no end group is shown, it is not given here.

B1: H1 peptide (Hdm2 240-254, SEQ ID NO:27, SVSDQFSVEFEVESL) (peptide)
peptide: Ac-SVSDQFSVEFEVESL-NH2
notes: Synthetic peptide
B2: 1-15 (peptide)
peptide: MGRRFLVTVRIQRAG
modifications: not fully specified
notes: also called mouse p19Arf library peptide, residues 1-15
B3: 21-35 (peptide)
peptide: RVFLVKFVRSRRPRT
modifications: not fully specified
notes: also called mouse p19Arf library peptide, residues 21-35
B4: 6-20 (peptide)
peptide: LVTVRIQRAGRPLQE
modifications: not fully specified
notes: also called mouse p19Arf library peptide, residues 6-20
B5: A1 peptide (human p14ARF 1-14, SEQ ID NO:26, MVRRFLVTLRIRRA) (peptide)
peptide: Ac-MVRRFLVTLRIRRA-NH2
notes: Synthetic peptide; also called human A1 (1-14)
B6: 26-40 (peptide)
peptide: KFVRSRRPRTASCAL
modifications: not fully specified
notes: also called mouse p19Arf library peptide, residues 26-40
B7: 11-25 (peptide)
peptide: IQRAGRPLQERVFLV
modifications: not fully specified
notes: also called mouse p19Arf library peptide, residues 11-25
B8: 41-55 (peptide)
peptide: AFVNMLLRLERILRR
modifications: not fully specified
notes: also called mouse p19Arf library peptide, residues 41-55

Tests used:
[1] = biological target: B5; assay: CD titration, H1 peptide added stepwise to A1 peptide
Procedure: (§1) CD spectra were recorded with an Aviv 62DS instrument in 5 mM potassium phosphate (pH 7.0) using a 1 mm cuvette. In FIG. 1A, A1 was 4.5 μM, molar ratios were: 1:0.0, 1:0.1, 1:0.6, 1:0.9, & 1:1.3. In FIG. 1B, H1 was 2.5 μM, molar ratios were: 1:0.2, 1:0.7, 1:1.0, & 1:1.3. Data was collected for 3 seconds in 1 nm steps and 10 scans were averaged for each spectrum. The appearance of a minimum in the CD spectra of the assemblies near […] and the increase in ellipticity near 200 nm is consistent with the formation of β-strand-containing structures.
(§2) An end point was reached when the molar ratio of A1:H1 was 1:1. For example, further additions of the H1 peptide led to the appearance of disordered spectral features consistent with unbound, free H1 peptide (inset, FIG. 6a). The Fourier transform infrared (FT-IR) spectrum of the co-assemblies confirms the CD results and allows the β-structures to be classified as anti-parallel β-strands on the basis of the absorbances at 1618 cm-1 and 1679 cm-1 (FIG. 7) [Casal, H. L.; Kohler, U.; Mantsch, H. H., Biochim Biophys Acta 957:11-20 (1988)]. In summary, the individually disordered A1 and H1 peptides self-assemble into supramolecular structures comprised of anti-parallel β-strands.

[2] = biological target: T1, His-tagged Hdm2 210-304 (human, UniProt Q00987 210-304); assay: SPR (Biacore), His-tagged Hdm2 210-304 captured by anti-His antibody, mouse Arf peptide as analyte, reference cell subtracted
T1 construct: not shown: thrombin-cleavable poly-His tag from pET28a
T1 sequence (Q00987 210-304): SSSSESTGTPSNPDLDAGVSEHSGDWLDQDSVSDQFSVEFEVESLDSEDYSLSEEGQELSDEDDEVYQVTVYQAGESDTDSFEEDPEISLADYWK
Procedure: Surface Plasmon Resonance. Binding studies were performed using a Biacore 3000 surface plasmon resonance (SPR) instrument (Biacore, Inc.). A Tetra-His™ Antibody (Qiagen, Inc.; Cat. #34670) was covalently attached to a carboxymethylated gold surface (C-1 chip; Biacore, Inc.). The carboxymethyl groups on the surface were activated with N-ethyl-N-(3-dimethylaminopropyl) carbodiimide (EDC) and N-hydroxysuccinimide (NHS) and the antibody was attached at pH 7.4 in 20 mM sodium phosphate buffer, 150 mM NaCl (PBS). Reactive sites remaining on the surface were blocked by reaction with ethanolamine. The His-tagged ligand was attached to the antibody by injecting a […] solution of the ligand in 10 mM HEPES, 150 mM NaCl, pH 7.4 (HBS-N buffer, Biacore) at a flow rate of 10 μL/Min through the flow cell. A reference cell was prepared similarly except that no His-tagged ligand was added. Binding was measured by flowing the non-His-tagged analyte through the reference and ligand-containing flow cells in sequence. Prior to injection of ligands, the chip surfaces were equilibrated in HBS-N buffer. Changes in the SPR response due to solvent differences and the injection process were monitored by injection of HBS-N buffer alone. Regeneration of the chip surface to remove bound analyte and ligand was accomplished by two 100 μL injections of 10 mM glycine, pH 2.0 through both flow cells. Data reported is-the difference in SPR signal between the flow cell containing analyte and the reference cell. Duplicate injections were made and the SPR response values reported are the average of these two injections.
Two libraries of peptides 15 amino acids in length were synthesized based on the sequence of exon 1β of mouse p19^Arf and the entire sequence of human p14^Arf. The sequence for the first peptide in each library corresponded to the first 15 amino acids of the protein sequences. […] This approach yielded two libraries of overlapping peptides spanning mouse p19^Arf residues 1-64 and human p14^Arf residues 1-132. The ability of these peptides to bind Hdm2 fragments was determined using the surface plasmon resonance (SPR) technique with a Biacore 3000 instrument.

[3] = biological target: B1; assay: CD and 1H NMR titration
Procedure: as §1, §2

## B1
[1]
  binding result: binds

## B2
[2]
  binding result: binds

## B3
[2]
  binding result: binds

## B4
[2]
  binding result: binds

## B5
[3]
  molar ratio A1:H1 at the end point of the titration: 1 mol A1 per mol H1

## B6
[2]
  binding result: binds

## B7
[2]
  binding result: no binding (tested: not given)

## B8
[2]
  binding result: no binding (tested: not given)
